Source: patent US11732029B2, “Methods and compositions for the treatment of wounds” (The University of Chicago, priority 2017, dated 2023)

Assays:
VEGF-A = test: vWF binding to VEGF-A in human serum (sandwich ELISA, immunoprecipitation and Western blotting); conditions: two lots of pooled serum from healthy donors
Protocol: One mL of human serum was immunoprecipitated with 10 μg of monoclonal rabbit anti-human vWF antibody (SinoBiological) or control rabbit IgG (EMD Millipore) and 50 μL of protein G-agarose (Thermo Fisher Scientific) overnight at 4° C. The resulting pellet was dissolved in Laemmli buffer and subjected to Western blot analysis. Western blot analysis was performed after SDS-PAGE (4-20% gradient gel, Bio-Rad) and transfer onto MS nitrocellulose membranes (Membrane Solutions). GFs were detected using 1 μg/mL biotinylated antibodies for human VEGF-A (R & D Systems), followed by incubation with HRP conjugated streptavidin (R & D Systems) at 1:200 dilutions. The proteins were detected and visualized with the ECL Plus Western Blotting Detection System (GE Healthcare).
The study was approved by the ethics committees of the Hammersmith, Queen Charlotte's, and Royal Marsden hospitals; informed consent was obtained from all individuals in accordance with the Declaration of Helsinki. ELISA plates (med-binding) were coated with 10 μg/mL rabbit monoclonal anti-human vWF antibody (clone: 111, SinoBiological). […] The antibodies were detected by streptavidin-HRP (R & D Systems). Color development and the absorbance measurement were done as described above.

FGF-2 = FGF-2 (Homo sapiens, UniProt P09038); test: Recombinant GF binding to the vWF recombinant protein and A1 HBD peptide (ELISA); parameters: All growth factors (GFs) and chemokines were purchased in their mature forms; purchased PeproTech; host or cells: Escherichia coli; conditions: plate coated with vWF protein, A1 domain or HBD peptide, 1 μg/mL GF
Protocol: (§1) ELISA tests were performed as described above. In brief, ELISA plates were coated with 1 μg/mL of FL-vWF (WT or R1341Q), 1 μg/mL of vWF A1 recombinant protein (U-Protein Express) or 1 μg/mL of vWF A1 HBD peptide (sequence […], (SEQ ID NO:50) chemically synthesized by Genscript) at 37° C. overnight. After blocking with 2% BSA solution containing PBS-T, 1 μg/mL of the recombinant human proteins VEGF-A121, VEGF-A165, PlGF-1, PlGF-2, PDGF-BB, FGF-2, CXCL-12α and CXCL-12γ were added. 1 μg/mL of BSA served as non-binding protein control. Bound GF or chemokine was detected with biotinylated antibodies for human VEGF-A, PlGF, PDGF-BB, FGF-2, or CXCL-12 (R & D Systems). The antibodies were detected by streptavidin-HRP (R & D Systems). Color development and the absorbance measurement were done as described above.

PlGF-2 = biological target: T1, PlGF-2 (Homo sapiens, UniProt P49763); test: as above; parameters: All growth factors (GFs) and chemokines were purchased in their mature forms; purchased PeproTech; host or cells: Escherichia coli; conditions: plate coated with vWF protein, A1 domain or HBD peptide, 1 μg/mL GF
T1 sequence (P49763 19-170 isoform P49763-3 limits assumed): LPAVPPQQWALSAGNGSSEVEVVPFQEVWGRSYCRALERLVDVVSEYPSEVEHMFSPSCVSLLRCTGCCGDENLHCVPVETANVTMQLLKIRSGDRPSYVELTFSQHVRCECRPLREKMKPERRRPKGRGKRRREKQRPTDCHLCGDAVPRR
Protocol: as §1

VEGF-A121 = biological target: T2, VEGF-A121 (Homo sapiens, UniProt P15692); test: as above; parameters: All growth factors (GFs) and chemokines were purchased in their mature forms; purchased PeproTech; host or cells: Escherichia coli; conditions: plate coated with vWF protein, A1 domain or HBD peptide, 1 μg/mL GF
T2 sequence (P15692 27-147 isoform P15692-9 limits assumed): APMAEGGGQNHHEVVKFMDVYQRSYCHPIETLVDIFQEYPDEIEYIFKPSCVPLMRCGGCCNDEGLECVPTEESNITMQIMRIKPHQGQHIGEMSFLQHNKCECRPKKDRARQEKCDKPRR
Protocol: as §1

PlGF-1 = biological target: T3, PlGF-1 (Homo sapiens, UniProt P49763); test: as above; parameters: All growth factors (GFs) and chemokines were purchased in their mature forms; purchased PeproTech; host or cells: Escherichia coli; conditions: plate coated with vWF protein, A1 domain or HBD peptide, 1 μg/mL GF
T3 sequence (P49763 19-149 isoform P49763-2 limits assumed): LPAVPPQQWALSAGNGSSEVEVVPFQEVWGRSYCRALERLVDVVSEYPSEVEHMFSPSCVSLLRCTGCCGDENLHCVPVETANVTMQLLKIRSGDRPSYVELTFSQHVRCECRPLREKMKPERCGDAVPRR
Protocol: as §1

[1] = system: full-thickness back-skin wounds in db/db mice; test: Mouse diabetic skin wound healing model, histomorphometric analysis; assay type: in vivo; conditions: fibrin matrix, 100 ng VEGF-A165 and 50 ng PDGF-BB, after 7 d, vs fibrin alone
Protocol: Histomorphometric analyses were performed as previously reported. Briefly, an area of 8 mm in diameter, which includes the complete epithelial margins, was excised. Wounds were fixed with 2% PFA and cut in the center into two and embedded into paraffin. Histological analysis was performed on 5 μm serial sections. Images were captured with an EVOS FL Auto microscope (Life Technologies). The extent of re-epithelialization and granulation tissue formation were measured by histomorphometric analysis of tissue sections (H&E staining) using ImageJ software. For analysis of re-epithelialization, the distance that the epithelium had traveled across the wound was measured; the muscle edges of the panniculus carnosus were used as an indicator for the initial wound edges, and re-epithelialization was calculated as the percentage of the distance of edges of the panniculus carnosus muscle. For granulation tissue quantification, the area covered by a highly cellular tissue was determined.
Diabetic skin wound healing assays were performed in the mouse as previously reported. Briefly, C57BLKS/J-m/Lepr db (db/db) male mice were 10 to 12 wk old at the start of the experiments. Their backs were shaved and four full-thickness punch biopsy wounds (6 mm in diameter) were created in each mouse. […]

Chain of FGF-2 (P09038 143-288): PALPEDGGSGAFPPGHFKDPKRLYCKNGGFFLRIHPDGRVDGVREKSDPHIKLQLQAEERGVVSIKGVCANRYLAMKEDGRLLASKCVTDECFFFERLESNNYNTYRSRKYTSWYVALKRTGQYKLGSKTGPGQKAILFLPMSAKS

binding to FGF-2 (FGF-2)	binding to PlGF-2 (PlGF-2)	Substance	vWF binding to VEGF-A in pooled human serum (VEGF-A)	binding to VEGF-A121 (VEGF-A121)	binding to PlGF-1 (PlGF-1)	granulation tissue [1]	wound closure [1]
–	–	vWF: human plasma-derived von Willebrand factor (EMD Millipore)	binds to VEGF-A	–	–	–	–
showed binding	showed binding	YIGLKDRKRPSELRRIASQVKYAC [vWF HBD]	–	neither VEGF-A121 nor PlGF-1 were able to bind	neither VEGF-A121 nor PlGF-1 were able to bind	did not differ	did not differ
